Target: murine dimeric IgA (mouse) (UniProt P01592)
Test: cell-based or functional assay

Sequence of UniProt P01592 (P01592 22-159): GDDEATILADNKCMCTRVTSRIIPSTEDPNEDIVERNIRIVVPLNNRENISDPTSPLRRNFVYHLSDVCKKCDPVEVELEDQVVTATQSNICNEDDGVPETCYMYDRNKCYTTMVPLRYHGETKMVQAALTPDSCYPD

Question: For “murine polymeric immunoglobulin receptor (from UniProt O70570 19-771)”, which total IgA concentration in milk by ELISA, transgenic line 3644 (270-fold increased SC); control mean 292 mg/ml is on record?
Answer: 593

Question: And the total IgA level in milk by ELISA, transgenic line 3646 (60-fold elevated SC) against control mice?
Answer: 1.5 times

From patent US6924412
